Source: patent US20120034160A1 (AbbVie / Abbott, published 2012)

What was measured:
Recombinant Human IL-1β = Recombinant Human IL-1β (human, UniProt P01584 117-269); test: cell-based or functional assay
Recombinant Human IL-17 = biological target: T1, Recombinant Human IL-17 (human, UniProt Q16552 20-155, limits assumed); test: cell-based or functional assay
T1 sequence (looked up): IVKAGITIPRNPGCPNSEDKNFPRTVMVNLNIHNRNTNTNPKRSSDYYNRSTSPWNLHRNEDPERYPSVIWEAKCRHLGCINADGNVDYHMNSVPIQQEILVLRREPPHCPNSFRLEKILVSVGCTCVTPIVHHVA

B1: DVD1609 (bispecific antibody, human IgG1, kappa)
heavy: not shown
light: DIQMTQSPSSLSASVGDRVTITCRASGNIHNYLTWYQQTPGKAPKLLIYNAKTLADGVPSRFSGSGSGTDYTFTISSLQPEDIATYYCQHFWSIPYTFGQGTKLQITRTVAAPSVFIFPPEIVLTQSPDFQSVTPKEKVTITCRASQNIGSELHWYQQKPDQSPKLLIKYASHSISGVPSRFSGSGSGTDFTLTINGLEAEDAATYYCHQSDTLPHTFGQGTKVDIKRTVAAPSVFIFPPSDEQLKSGTASVVCLLNNFYPREAKVQWKVDNALQSGNSQESVTEQDSKDSTYSLSSTLTLSKADYEKHKVYACEVTHQGLSSPVTKSFNRGEC
N-Terminal VD IL-1β Neutralization Assay EC50 (Recombinant Human IL-1β): 0.0038 nM
C-terminal VD IL-17 Neutralization Assay EC50 (Recombinant Human IL-17): 0.173 nM

B2: DVD1611 (bispecific antibody, human IgG1, kappa)
heavy: not shown
light: DIQMTQSPSSLSASVGDRVTITCRASGNIHNYLTWYQQTPGKAPKLLIYNAKTLADGVPSRFSGSGSGTDYTFTISSLQPEDIATYYCQHFWSIPYTFGQGTKLQITRTVAAPSVFIFPPEIVLTQSPDFQSVTPKEKVTITCRASQNIGSELHWYQQKPDQSPKLLIKYASHSISGVPSRFSGSGSGTDFTLTINGLEAEDAATYYCHQSDTLPHTFGQGTKVDIKRTVAAPSVFIFPPSDEQLKSGTASVVCLLNNFYPREAKVQWKVDNALQSGNSQESVTEQDSKDSTYSLSSTLTLSKADYEKHKVYACEVTHQGLSSPVTKSFNRGEC
N-Terminal VD IL-1β Neutralization Assay EC50 (Recombinant Human IL-1β): 0.0041 nM
C-terminal VD IL-17 Neutralization Assay EC50 (Recombinant Human IL-17): 0.3 nM

B3: DVD1620 (bispecific antibody, human IgG1, kappa)
heavy: not shown
light: DIQMTQSPSSLSASVGDRVTITCRASSGIISYIDWFQQKPGKAPKRLIYATFDLASGVPSRFSGSGSGTDYTLTISSLQPEDFATYYCRQVGSYPETFGQGTKLEIKRTVAAPDIQMTQSPSSLSASVGDRVTITCRASGNIHNYLTWYQQTPGKAPKLLIYNAKTLADGVPSRFSGSGSGTDYTFTISSLQPEDIATYYCQHFWSIPYTFGQGTKLQITRTVAAPSVFIFPPSDEQLKSGTASVVCLLNNFYPREAKVQWKVDNALQSGNSQESVTEQDSKDSTYSLSSTLTLSKADYEKHKVYACEVTHQGLSSPVTKSFNRGEC
C-Terminal VD IL-1β Neutralization Assay EC50 (Recombinant Human IL-1β): 17.4 nM
N-terminal VD IL-17 Neutralization Assay EC50 (Recombinant Human IL-17): 0.0067 nM

B4: DVD1615 (bispecific antibody, human IgG1, kappa)
heavy: not shown
light: DTVVTQSPAFLSVTPGEKVTITCITSTDIDVDMNWYQQKPDQPPKLLISQGNTLRPGVPSRFSSSGSGTDFTFTISSLEAEDAATYYCLQSDNLPLTFGQGTKLEIKRTVAAPSVFIFPPEIVLTQSPDFQSVTPKEKVTITCRASQNIGSELHWYQQKPDQSPKLLIKYASHSISGVPSRFSGSGSGTDFTLTINGLEAEDAATYYCHQSDTLPHTFGQGTKVDIKRTVAAPSVFIFPPSDEQLKSGTASVVCLLNNFYPREAKVQWKVDNALQSGNSQESVTEQDSKDSTYSLSSTLTLSKADYEKHKVYACEVTHQGLSSPVTKSFNRGEC
N-Terminal VD IL-1β Neutralization Assay EC50 (Recombinant Human IL-1β): 0.191 nM
C-terminal VD IL-17 Neutralization Assay EC50 (Recombinant Human IL-17): 0.061 nM

B5: DVD1610 (bispecific antibody, human IgG1, kappa)
heavy: not shown
light: EIVLTQSPDFQSVTPKEKVTITCRASQNIGSELHWYQQKPDQSPKLLIKYASHSISGVPSRFSGSGSGTDFTLTINGLEAEDAATYYCHQSDTLPHTFGQGTKVDIKRTVAAPSVFIFPPDIQMTQSPSSLSASVGDRVTITCRASGNIHNYLTWYQQTPGKAPKLLIYNAKTLADGVPSRFSGSGSGTDYTFTISSLQPEDIATYYCQHFWSIPYTFGQGTKLQITRTVAAPSVFIFPPSDEQLKSGTASVVCLLNNFYPREAKVQWKVDNALQSGNSQESVTEQDSKDSTYSLSSTLTLSKADYEKHKVYACEVTHQGLSSPVTKSFNRGEC
C-Terminal VD IL-1β Neutralization Assay EC50 (Recombinant Human IL-1β): 1 nM
N-terminal VD IL-17 Neutralization Assay EC50 (Recombinant Human IL-17): 0.0046 nM

B6: DVD1612 (bispecific antibody, human IgG1, kappa)
heavy: not shown
light: EIVLTQSPDFQSVTPKEKVTITCRASQNIGSELHWYQQKPDQSPKLLIKYASHSISGVPSRFSGSGSGTDFTLTINGLEAEDAATYYCHQSDTLPHTFGQGTKVDIKRTVAAPSVFIFPPDIQMTQSPSSLSASVGDRVTITCRASGNIHNYLTWYQQTPGKAPKLLIYNAKTLADGVPSRFSGSGSGTDYTFTISSLQPEDIATYYCQHFWSIPYTFGQGTKLQITRTVAAPSVFIFPPSDEQLKSGTASVVCLLNNFYPREAKVQWKVDNALQSGNSQESVTEQDSKDSTYSLSSTLTLSKADYEKHKVYACEVTHQGLSSPVTKSFNRGEC
C-Terminal VD IL-1β Neutralization Assay EC50 (Recombinant Human IL-1β): 0.153 nM
N-terminal VD IL-17 Neutralization Assay EC50 (Recombinant Human IL-17): 0.0238 nM

B7: DVD1619 (bispecific antibody, human IgG1, kappa)
heavy: not shown
light: DIQMTQSPSSLSASVGDRVTITCRASGNIHNYLTWYQQTPGKAPKLLIYNAKTLADGVPSRFSGSGSGTDYTFTISSLQPEDIATYYCQHFWSIPYTFGQGTKLQITRTVAAPDIQMTQSPSSLSASVGDRVTITCRASSGIISYIDWFQQKPGKAPKRLIYATFDLASGVPSRFSGSGSGTDYTLTISSLQPEDFATYYCRQVGSYPETFGQGTKLEIKRTVAAPSVFIFPPSDEQLKSGTASVVCLLNNFYPREAKVQWKVDNALQSGNSQESVTEQDSKDSTYSLSSTLTLSKADYEKHKVYACEVTHQGLSSPVTKSFNRGEC
N-Terminal VD IL-1β Neutralization Assay EC50 (Recombinant Human IL-1β): 0.139 nM
C-terminal VD IL-17 Neutralization Assay EC50 (Recombinant Human IL-17): 0.0345 nM

B8: DVD1608 (bispecific antibody, human IgG1, kappa)
heavy: not shown
light: EIVLTQSPDFQSVTPKEKVTITCRASQDIGSELHWYQQKPDQPPKLLIKYASHSTSGVPSRFSGSGSGTDFTLTINGLEAEDAGTYYCHQTDSLPYTFGPGTKVDIKRTVAAPSVFIFPPETTVTQSPSSLSASVGDRVTITCITSTDIDVDMNWYQQKPGKPPKLLISQGNTLRPGVPSRFSSSGSGTDFTFTISSLQPEDFATYYCLQSDNLPLTFGQGTKLEIKRTVAAPSVFIFPPSDEQLKSGTASVVCLLNNFYPREAKVQWKVDNALQSGNSQESVTEQDSKDSTYSLSSTLTLSKADYEKHKVYACEVTHQGLSSPVTKSFNRGEC
C-Terminal VD IL-1β Neutralization Assay EC50 (Recombinant Human IL-1β): 4.25 nM
N-terminal VD IL-17 Neutralization Assay EC50 (Recombinant Human IL-17): 0.0082 nM

B9: DVD1614 (bispecific antibody, human IgG1, kappa)
heavy: not shown
light: EIVLTQSPDFQSVTPKEKVTITCRASQNIGSELHWYQQKPDQSPKLLIKYASHSISGVPSRFSGSGSGTDFTLTINGLEAEDAATYYCHQSDTLPHTFGQGTKVDIKRTVAAPSVFIFPPDTQVTQSPSSLSASVGDRVTITCITSTDIDVDMNWYQQKPGKPPKLLISQGNTLRPGVPSRFSSSGSGTDFTFTISSLQPEDFATYYCLQSDNLPLTFGQGTKLEIKRTVAAPSVFIFPPSDEQLKSGTASVVCLLNNFYPREAKVQWKVDNALQSGNSQESVTEQDSKDSTYSLSSTLTLSKADYEKHKVYACEVTHQGLSSPVTKSFNRGEC
C-Terminal VD IL-1β Neutralization Assay EC50 (Recombinant Human IL-1β): 0.801 nM
N-terminal VD IL-17 Neutralization Assay EC50 (Recombinant Human IL-17): 0.0142 nM

B10: DVD1618 (bispecific antibody, human IgG1, kappa)
heavy: not shown
light: EIVLTQSPDFQSVTPKEKVTITCRASQNIGSELHWYQQKPDQSPKLLIKYASHSISGVPSRFSGSGSGTDFTLTINGLEAEDAATYYCHQSDTLPHTFGQGTKVDIKRTVAAPSVFIFPPETTVTQSPSSLSASVGDRVTITCITSTDIDVDMNWYQQKPGKPPKLLISQGNTLRPGVPSRFSSSGSGTDFTFTISSLQPEDFATYYCLQSDNLPLTFGQGTKLEIKRTVAAPSVFIFPPSDEQLKSGTASVVCLLNNFYPREAKVQWKVDNALQSGNSQESVTEQDSKDSTYSLSSTLTLSKADYEKHKVYACEVTHQGLSSPVTKSFNRGEC
C-Terminal VD IL-1β Neutralization Assay EC50 (Recombinant Human IL-1β): 2.75 nM
N-terminal VD IL-17 Neutralization Assay EC50 (Recombinant Human IL-17): 0.0045 nM

B11: DVD1616 (bispecific antibody, human IgG1, kappa)
heavy: not shown
light: EIVLTQSPDFQSVTPKEKVTITCRASQNIGSELHWYQQKPDQSPKLLIKYASHSISGVPSRFSGSGSGTDFTLTINGLEAEDAATYYCHQSDTLPHTFGQGTKVDIKRTVAAPSVFIFPPDTVVTQSPAFLSVTPGEKVTITCITSTDIDVDMNWYQQKPDQPPKLLISQGNTLRPGVPSRFSSSGSGTDFTFTISSLEAEDAATYYCLQSDNLPLTFGQGTKLEIKRTVAAPSVFIFPPSDEQLKSGTASVVCLLNNFYPREAKVQWKVDNALQSGNSQESVTEQDSKDSTYSLSSTLTLSKADYEKHKVYACEVTHQGLSSPVTKSFNRGEC
C-Terminal VD IL-1β Neutralization Assay EC50 (Recombinant Human IL-1β): 1.12 nM
N-terminal VD IL-17 Neutralization Assay EC50 (Recombinant Human IL-17): 0.0062 nM

B12: DVD1607 (bispecific antibody, human IgG1, kappa)
heavy: not shown
light: ETTVTQSPSSLSASVGDRVTITCITSTDIDVDMNWYQQKPGKPPKLLISQGNTLRPGVPSRFSSSGSGTDFTFTISSLQPEDFATYYCLQSDNLPLTFGQGTKLEIKRTVAAPSVFIFPPEIVLTQSPDFQSVTPKEKVTITCRASQDIGSELHWYQQKPDQPPKLLIKYASHSTSGVPSRFSGSGSGTDFTLTINGLEAEDAGTYYCHQTDSLPYTFGPGTKVDIKRTVAAPSVFIFPPSDEQLKSGTASVVCLLNNFYPREAKVQWKVDNALQSGNSQESVTEQDSKDSTYSLSSTLTLSKADYEKHKVYACEVTHQGLSSPVTKSFNRGEC
N-Terminal VD IL-1β Neutralization Assay EC50 (Recombinant Human IL-1β): 0.455 nM
C-terminal VD IL-17 Neutralization Assay EC50 (Recombinant Human IL-17): 0.0031 nM

B13: DVD1613 (bispecific antibody, human IgG1, kappa)
heavy: not shown
light: DTQVTQSPSSLSASVGDRVTITCITSTDIDVDMNWYQQKPGKPPKLLISQGNTLRPGVPSRFSSSGSGTDFTFTISSLQPEDFATYYCLQSDNLPLTFGQGTKLEIKRTVAAPSVFIFPPEIVLTQSPDFQSVTPKEKVTITCRASQNIGSELHWYQQKPDQSPKLLIKYASHSISGVPSRFSGSGSGTDFTLTINGLEAEDAATYYCHQSDTLPHTFGQGTKVDIKRTVAAPSVFIFPPSDEQLKSGTASVVCLLNNFYPREAKVQWKVDNALQSGNSQESVTEQDSKDSTYSLSSTLTLSKADYEKHKVYACEVTHQGLSSPVTKSFNRGEC
N-Terminal VD IL-1β Neutralization Assay EC50 (Recombinant Human IL-1β): 0.246 nM
C-terminal VD IL-17 Neutralization Assay EC50 (Recombinant Human IL-17): 0.101 nM

B14: DVD1617 (bispecific antibody, human IgG1, kappa)
heavy: not shown
light: ETTVTQSPSSLSASVGDRVTITCITSTDIDVDMNWYQQKPGKPPKLLISQGNTLRPGVPSRFSSSGSGTDFTFTISSLQPEDFATYYCLQSDNLPLTFGQGTKLEIKRTVAAPSVFIFPPEIVLTQSPDFQSVTPKEKVTITCRASQNIGSELHWYQQKPDQSPKLLIKYASHSISGVPSRFSGSGSGTDFTLTINGLEAEDAATYYCHQSDTLPHTFGQGTKVDIKRTVAAPSVFIFPPSDEQLKSGTASVVCLLNNFYPREAKVQWKVDNALQSGNSQESVTEQDSKDSTYSLSSTLTLSKADYEKHKVYACEVTHQGLSSPVTKSFNRGEC
N-Terminal VD IL-1β Neutralization Assay EC50 (Recombinant Human IL-1β): 0.247 nM
C-terminal VD IL-17 Neutralization Assay EC50 (Recombinant Human IL-17): 0.0424 nM
